We go through 3 molecules from patent US20250179163A1 (Sanofi, published 2025).

Assay [1] deals with T1, Human TGFβ1 (human, UniProt P01137 279-390).
T1 construct: also called Transforming Growth Factor-β1
The assay can be described thus: SPR (Biacore T200), TGFβ1 amine-coupled to CM5 chip, Fab injected. On the technique in general: SPR reads the build-up and loss of mass on a sensor chip optically.

For assay [2], the target named is T1, Human TGFβ1.
Assay [3] deals with T1, Human TGFβ1. Kind of assay: Octet QK384, Fab from conditioned medium captured on anti-Fab-CH1 biosensors, 200 nM TGFβ1; qualitative. The protocol:
Conditioned media (CM) was harvested 4 days post-transfection and the Octet QK384 instrument was used to calculate expression level and TGFβ1 binding in a single assay. […] Binding to anti-Fab-CH1 biosensors was measured for 2 min at 1000 rpm and 30° C. plate temperature for quantitation and capture. The sensors were then moved into wells containing 200 nM of TGFβ1 for binding assessment.

T1 sequence (P01137 279-390 limits assumed): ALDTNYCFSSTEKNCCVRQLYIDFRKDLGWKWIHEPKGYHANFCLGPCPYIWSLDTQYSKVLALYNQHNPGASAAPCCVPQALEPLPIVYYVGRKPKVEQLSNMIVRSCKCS

A word on the Kd: it is the free concentration of one partner at which half of the binding sites on the other are occupied at equilibrium, for simple one-to-one binding. Read a high Kd as weaker binding. Usually koff stands for the rate constant with which the complex falls apart. The term kon denotes the rate constant with which the complex forms. Lower therefore signals slow association. In the case of GC1008 Fab, in the assay with Human TGFβ1 [1], the dissociation constant Kd is 2.9 nM, the koff was determined as 0.00208 s⁻¹ and the kon was 711000 M⁻¹ s⁻¹.

In the assay with Human TGFβ1 [2], GC1008 control (antibody) displayed an IC50 (read off the curve) of 1 ng/mL.

B1: CAT192 A25S Fab (Fab, V domains shown)
VH: EVQLVESGGGVVQPGRSLRLSCAASGFTFSSYGMHWVRQAPGKELEWVAVISYDGSIKYYADSVKGRFTISRDNSKNTLYLQMNSLRAEDTAVYYCARTGEYSGYDTDPQYSWGQGTTVTVSS
VL: EIVLTQSPSSLSASVGDRVTITCRSSQGIGDDLGWYQQKPGKAPILLIYGTSTLQSGVPSRFSGSGSGTDFTLTINSLQPEDFATYYCLQDSNYPLTFGGGTRLEIKR
notes: Control light chain mutant in the Fv; His-tagged HC Fab, HC limits see recheck; also called A25S mutant
Turning to B1, the binding result with Human TGFβ1 [3] is given as “binds”.
